{
  "source": "patent US20060079445A1",
  "about": "“CaMKII/calcium channel binding-related compositions and methods” (priority 2004, published 2006)",
  "key": {"[1]": {"molecular_target": "T1, autophosphorylated α-CaMKII / α1C amino acids 1581-1690 (Rattus norvegicus, UniProt P11275)", "T1 construct": "made in house; GST fusion proteins from bacterial lysates", "assay": "GST pull down of autophosphorylated α-CaMKII with α1C aa 1581-1690, peptide competition", "format": "binding", "details": "40 μM peptide; 20 nM α-CaMKII", "description": "(B) Immunoblot with CBα2 after GST pull down of purified autophosphorylated α-CaMKII (20 nM), using α1C amino acids 1581-1690 fused to GST. Pull down assay performed in the presence of 40 μM of the indicated peptide or the peptide diluent DMSO. (C) Immunoblots with CBα2 or an anti-CaM antibody after a GST pull down assay, using α1C amino acids 1581-1690 (WT), a ^1644TVGKFY^1649→EEDAAA mutant (Mut6), or GST alone, of purified autophosphorylated CaMKII (left) or CaM (right). Top panels show a Ponceau stain of each fusion protein. […] Asterisk indicates p<0.001 for a one-way analysis of variance followed by a Dunnett's test to identify specific pair-wise differences between the means for Mut6 vs. wt and GST vs. wt, n=4-8. […] Top panels show a Ponceau stain of each fusion protein.\nThe binding reactions were accomplished in Tris binding buffer (50 mM Tris, 150 mM NaCl, 0.1% T-20 at pH 7.4 ml plus 0.1% BSA) containing 20 nM purified CaMKII. The total protein from the HEK293 cell lysates added to each binding reaction ranged from 9-22 μg, determined by normalizing for the amount of CaMKII activity (Singla et al., 2001). Pre-autophosphorylayion of CaMKII (purified and lysate) was accomplished at 4° C. for 5 min in Tris binding buffer plus 1 mM CaCl2, 5 μM CaM, 1 mM ATP, and 5 mM MgCl2 to restrict the sites of autophosphorylation to primarily Thr286 (Ikeda et al., 1991; Lai et al., 1987; Lou and Schulman, 1989). Final concentration of these components in the binding reaction (1:40) was 0.025 mM CaCl2, 0.125 μM CaM, 0.025 mM ATP, and 0.125 MM MgCl2. The binding reaction was rocked for 1 h at 4° C. and the beads extensively washed in Tris binding buffer (2-3× for 5 mins each). Immunoblots were performed multiple times with identical results and Ponceau staining was always performed to ensure equal loading and transfer. CaMKII binding was quantified using densiotometric measurement of band intensity using KODAK 1D Image Analysis Software (Eastman Kodak, Company). […]"}, "[2]": {"molecular_target": "T2, cloned L-type channels (subunit α1C77) (Homo sapiens, UniProt Q13936)", "T2 construct": "expressed in transfected cells; host or cells: HEK293 stably transfected with α2-δ and β1C (HEKα2β1), transiently transfected with α1C77 and GFP", "T2 sequence (Q13936 1-2138 isoform Q13936-20)": "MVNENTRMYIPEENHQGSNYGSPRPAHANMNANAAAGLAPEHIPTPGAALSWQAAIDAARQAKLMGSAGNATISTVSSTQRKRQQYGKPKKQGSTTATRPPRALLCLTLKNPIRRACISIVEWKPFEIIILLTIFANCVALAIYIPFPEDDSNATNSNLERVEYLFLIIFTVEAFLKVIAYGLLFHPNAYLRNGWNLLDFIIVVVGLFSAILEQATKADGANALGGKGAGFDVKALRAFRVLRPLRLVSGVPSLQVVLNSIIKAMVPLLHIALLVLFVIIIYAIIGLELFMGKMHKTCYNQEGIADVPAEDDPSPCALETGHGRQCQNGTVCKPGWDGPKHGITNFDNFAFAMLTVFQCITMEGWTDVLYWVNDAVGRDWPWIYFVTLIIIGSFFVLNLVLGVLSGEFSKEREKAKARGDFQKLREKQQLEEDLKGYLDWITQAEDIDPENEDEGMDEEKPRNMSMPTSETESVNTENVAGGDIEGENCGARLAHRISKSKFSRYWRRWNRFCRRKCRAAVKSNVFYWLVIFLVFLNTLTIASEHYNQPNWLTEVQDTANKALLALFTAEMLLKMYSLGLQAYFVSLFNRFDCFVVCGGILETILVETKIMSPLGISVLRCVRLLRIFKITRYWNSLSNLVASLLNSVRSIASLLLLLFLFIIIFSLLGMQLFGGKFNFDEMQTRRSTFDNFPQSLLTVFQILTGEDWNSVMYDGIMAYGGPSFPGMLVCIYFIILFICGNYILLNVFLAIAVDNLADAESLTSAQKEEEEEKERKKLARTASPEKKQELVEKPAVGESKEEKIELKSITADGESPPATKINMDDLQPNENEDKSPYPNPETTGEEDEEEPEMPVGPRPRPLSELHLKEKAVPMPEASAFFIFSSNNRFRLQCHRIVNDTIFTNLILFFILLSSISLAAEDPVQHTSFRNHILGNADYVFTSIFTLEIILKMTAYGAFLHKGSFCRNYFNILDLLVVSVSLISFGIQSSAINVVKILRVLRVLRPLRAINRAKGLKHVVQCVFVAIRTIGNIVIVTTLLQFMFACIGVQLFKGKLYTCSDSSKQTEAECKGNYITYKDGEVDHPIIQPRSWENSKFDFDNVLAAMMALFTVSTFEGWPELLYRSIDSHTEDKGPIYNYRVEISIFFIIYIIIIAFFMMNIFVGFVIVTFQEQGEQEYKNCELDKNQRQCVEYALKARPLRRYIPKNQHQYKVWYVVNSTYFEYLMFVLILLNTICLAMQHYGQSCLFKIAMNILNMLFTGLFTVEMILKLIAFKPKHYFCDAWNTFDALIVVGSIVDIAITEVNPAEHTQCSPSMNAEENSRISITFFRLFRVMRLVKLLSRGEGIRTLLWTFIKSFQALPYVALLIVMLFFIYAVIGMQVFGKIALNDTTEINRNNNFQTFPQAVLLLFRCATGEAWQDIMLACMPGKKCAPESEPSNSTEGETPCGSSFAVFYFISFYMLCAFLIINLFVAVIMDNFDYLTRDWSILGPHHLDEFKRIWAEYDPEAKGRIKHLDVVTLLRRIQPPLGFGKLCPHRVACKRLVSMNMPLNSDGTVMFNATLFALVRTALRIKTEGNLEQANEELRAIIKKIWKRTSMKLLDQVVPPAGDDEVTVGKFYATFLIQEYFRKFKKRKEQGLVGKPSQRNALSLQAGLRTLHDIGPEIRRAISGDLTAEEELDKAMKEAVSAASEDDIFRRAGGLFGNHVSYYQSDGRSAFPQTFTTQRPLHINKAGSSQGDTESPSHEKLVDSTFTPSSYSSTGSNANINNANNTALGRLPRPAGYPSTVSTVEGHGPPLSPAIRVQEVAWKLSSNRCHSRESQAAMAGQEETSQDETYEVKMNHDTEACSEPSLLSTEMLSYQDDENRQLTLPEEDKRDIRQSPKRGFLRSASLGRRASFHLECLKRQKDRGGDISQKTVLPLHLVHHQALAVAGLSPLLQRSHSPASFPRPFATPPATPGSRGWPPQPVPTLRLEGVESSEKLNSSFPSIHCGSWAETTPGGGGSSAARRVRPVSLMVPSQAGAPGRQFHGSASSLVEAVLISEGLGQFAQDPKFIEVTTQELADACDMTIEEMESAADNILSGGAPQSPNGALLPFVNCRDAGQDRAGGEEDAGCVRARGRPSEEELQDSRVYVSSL", "T2 sequence (Q02641 whole entry partner)": "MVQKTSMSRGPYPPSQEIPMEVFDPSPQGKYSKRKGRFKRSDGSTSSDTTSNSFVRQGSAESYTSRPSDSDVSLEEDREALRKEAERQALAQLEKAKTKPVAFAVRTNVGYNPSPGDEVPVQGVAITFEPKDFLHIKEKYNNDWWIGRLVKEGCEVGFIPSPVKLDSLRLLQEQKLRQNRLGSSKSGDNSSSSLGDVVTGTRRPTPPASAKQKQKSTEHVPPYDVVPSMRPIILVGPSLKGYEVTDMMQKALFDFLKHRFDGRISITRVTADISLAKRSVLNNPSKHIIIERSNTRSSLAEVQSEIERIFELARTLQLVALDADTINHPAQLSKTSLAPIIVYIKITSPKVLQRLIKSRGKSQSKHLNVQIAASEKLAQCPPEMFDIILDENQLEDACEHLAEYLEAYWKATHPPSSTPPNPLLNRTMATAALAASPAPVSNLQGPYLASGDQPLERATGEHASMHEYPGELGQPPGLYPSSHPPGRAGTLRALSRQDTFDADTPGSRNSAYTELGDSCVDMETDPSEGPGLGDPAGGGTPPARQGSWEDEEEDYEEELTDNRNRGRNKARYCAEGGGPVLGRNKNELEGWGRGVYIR", "T2 sequence (P54289 25-946 partner limits assumed)": "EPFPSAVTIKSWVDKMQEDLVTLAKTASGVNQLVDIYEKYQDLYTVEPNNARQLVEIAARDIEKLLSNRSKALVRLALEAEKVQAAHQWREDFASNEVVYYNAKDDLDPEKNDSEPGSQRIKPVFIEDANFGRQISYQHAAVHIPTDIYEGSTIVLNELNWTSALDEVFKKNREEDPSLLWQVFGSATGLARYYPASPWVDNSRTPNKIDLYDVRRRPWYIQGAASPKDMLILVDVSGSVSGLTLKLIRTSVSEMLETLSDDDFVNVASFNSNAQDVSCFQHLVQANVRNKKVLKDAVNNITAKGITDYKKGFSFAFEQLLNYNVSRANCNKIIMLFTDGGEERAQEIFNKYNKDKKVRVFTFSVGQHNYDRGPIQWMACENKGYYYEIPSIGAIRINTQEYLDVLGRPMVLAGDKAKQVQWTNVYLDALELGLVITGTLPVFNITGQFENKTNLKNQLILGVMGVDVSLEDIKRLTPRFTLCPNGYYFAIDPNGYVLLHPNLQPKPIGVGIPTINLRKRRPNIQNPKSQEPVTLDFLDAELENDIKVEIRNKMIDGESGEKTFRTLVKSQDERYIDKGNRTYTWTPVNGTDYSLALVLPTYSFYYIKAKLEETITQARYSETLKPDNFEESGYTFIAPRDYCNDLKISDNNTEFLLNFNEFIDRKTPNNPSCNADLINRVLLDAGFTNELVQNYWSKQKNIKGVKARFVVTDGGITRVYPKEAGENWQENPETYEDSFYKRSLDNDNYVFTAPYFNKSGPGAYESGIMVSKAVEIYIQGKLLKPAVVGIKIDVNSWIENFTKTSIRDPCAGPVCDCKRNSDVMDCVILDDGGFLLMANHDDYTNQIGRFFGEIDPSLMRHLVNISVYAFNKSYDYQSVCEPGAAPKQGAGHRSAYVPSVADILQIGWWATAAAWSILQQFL", "T2 sequence (P54289 947-1103 partner limits assumed)": "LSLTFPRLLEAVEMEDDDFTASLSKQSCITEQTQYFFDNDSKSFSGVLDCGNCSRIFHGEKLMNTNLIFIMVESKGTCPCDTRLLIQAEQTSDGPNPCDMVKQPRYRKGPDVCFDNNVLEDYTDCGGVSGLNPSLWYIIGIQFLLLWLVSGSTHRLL", "assay": "Check for use-dependence of diltiazem block of cloned L-type channels", "format": "cell-based", "details": "100 μM; same solutions and voltage protocol as granule cells", "description": "Dissociated cerebellar granule cells were prepared from 7-day old C57/BL6 mouse cerebella and grown in culture by a published protocol (Piedras-Renteria and Tsien, 1998; Randall and Tsien, 1995). The cerebellar granule cells were maintained in Minimal Essential Medium (Invitrogen) supplemented with 10% fetal bovine serum, glucose 5 mg/liter, transferrin 100 mg/liter, insulin 25 mg/liter, glutamine 300 mg/liter, and potassium chloride 20 mM. Cells were plated on Matrigel (Collaborative Biomedical Product) treated glass coverslips in 24-well chambers and maintained in a humidified, 37° C. incubator with […]/5% CO2. Cells were maintained for 6 to 9 days in culture prior to electrophysiological experiments. HEK293 cells stably transfected with the α2-δ and β1C subunits (HEKα2β1) were grown in Dulbecco's Modified Eagle's Medium containing 10% v/v calf serum, penicillin (100 units/ml), streptomycin (100 μg/ml), and kept under positive selection with Geneticin (400 μg/ml) while being maintained as described above. cDNAs encoding the α1C77 subunit (Zühlke and Reuter, 1998) and the green fluorescent protein were transiently transfected into HEKα2β1 cells by using the Lipofectamine2000 reagent (Invitrogen). Electrophysiological experiments were performed >24 hrs after transfection."}, "[3]": {"tested_on": "L-type Ca^2+ currents in cerebellar granule cells", "assay": "Patch-clamp of Ca2+-dependent facilitation of L-type currents in cerebellar granule cells", "format": "cell-based, C57/BL6 mouse", "details": "2 μM peptide in patch pipette; Ca^2+ charge carrier; train of five pulses; without peptide facilitation ~50%", "description": "Dissociated cerebellar granule cells were prepared from 7-day old C57/BL6 mouse cerebella and grown in culture by a published protocol (Piedras-Renteria and Tsien, 1998; Randall and Tsien, 1995). The cerebellar granule cells were maintained in Minimal Essential Medium (Invitrogen) supplemented with 10% fetal bovine serum, glucose 5 mg/liter, transferrin 100 mg/liter, insulin 25 mg/liter, glutamine 300 mg/liter, and potassium chloride 20 mM. Cells were plated on Matrigel (Collaborative Biomedical Product) treated glass coverslips in 24-well chambers and maintained in a humidified, 37° C. incubator with […]/5% CO2. Cells were maintained for 6 to 9 days in culture prior to electrophysiological experiments. […]\nCerebellar granule cells, identified on the basis of morphology and size, comprised >90% of the cells in the primary culture. […] Voltage-gated Ca^2+ and Ba^2+ currents were recorded from cells depolarized to 0 mV with five 20 ms pulses (50 ms interpulse interval) from a −90 mV holding potential. […]"}},
  "data": [
    {"compound": "1589-1610: ~22 aa peptide of α1C residues 1589-1610, site important for tethering of apoCaM (KRLVSMNMPLNSDGTVMFNATL; UniProt Q13936 1589-1610, looked up, fragment)", "values": [
      {"measurement": "interaction of autophosphorylated CaMKII with the 1581-1690 fusion protein", "setting": "[1]", "value": "not inhibited"}
    ]},
    {"compound": "1615-1636: ~22 aa peptide of α1C residues 1615-1636, site important for tethering of apoCaM (RTALRIKTEGNLEQANEELRAI; UniProt Q13936 1615-1636, looked up, fragment)", "values": [
      {"measurement": "interaction of autophosphorylated CaMKII with the 1581-1690 fusion protein", "setting": "[1]", "value": "not inhibited"}
    ]},
    {"compound": "1639-1660: ~22 aa peptide generated from α1C residues 1639-1660, contains TVGKFY (KIWKRTSMKLLDQVVPPAGDDE; UniProt Q13936 1639-1660, looked up, fragment)", "values": [
      {"measurement": "interaction of autophosphorylated CaMKII with the 1581-1690 fusion protein", "setting": "[1]", "value": "dramatically reduced"}
    ]},
    {"compound": "COc1ccc([C@@H]2Sc3ccccc3N(CCN(C)C)C(=O)[C@@H]2OC(C)=O)cc1", "note": "[diltiazem]", "values": [
      {"measurement": "use-dependence of block of calcium currents", "setting": "[2]", "value": "none were found"}
    ]},
    {"compound": "KKALRRQEAVDAL [autocamtide-2-related inhibitory peptide]", "values": [
      {"measurement": "decrease in peak L-type current over the course of the depolarizing pulse train", "setting": "[3]", "value": "~25", "unit": "%"}
    ]}
  ]
}
